Laboratory results as given in US20210079037A1, “LIGHT-SWITCHABLE POLYPEPTIDE AND USES THEREOF” (TECHNISCHE UNIVERSITÄT MÜNCHEN, priority 2017, published 2021).
Numbered stars: 1 amine (or outer) side, 2 acyl side, 3 side chain; on linkers, the order of the positions; unused ones are H or OH. Square brackets hold non-standard residues; d marks the D form. Caf = 4′-carboxyphenylazophenylalanine, O=C([C@H](Cc1ccc(/N=N/c2ccc(C(=O)[*:3])cc2)cc1)N[*:1])[*:2]

B1: ProtL^Caf337: ProtL-ABD fusion protein with Caf at position 337 and mutations Tyr361Asn and Leu365Ser (SEQ ID NO: 86) (protein)
chain: MKEEVTIKVNLI[Caf]ADGKTQTAEFKGTFEEATAKAYANADLSAKENGEYTADLEDGGNTINIKFAGGAVDANSLAEAKVLANRELDKYGVSDYYKNLINNAKTVEGVKALIDEILAALP
B2: ProtL^Caf369: ProtL-ABD fusion protein modified with Caf at position 369 (protein)
chain: MKEEVTIKVNLIFADGKTQTAEFKGTFEEATAKAYAYADLLAKE[Caf]GEYTADLEDGGNTINIKFAGGAVDANSLAEAKVLANRELDKYGVSDYYKNLINNAKTVEGVKALIDEILAALP
B3: ProtL^Caf360: ProtL-ABD fusion protein modified with Caf at position 360 (protein)
chain: MKEEVTIKVNLIFADGKTQTAEFKGTFEEATAKAY[Caf]YADLLAKENGEYTADLEDGGNTINIKFAGGAVDANSLAEAKVLANRELDKYGVSDYYKNLINNAKTVEGVKALIDEILAALP
B4: ProtL-ABD: unmodified protein L domain B1 fused to a human albumin-binding domain (SEQ ID NO: 61) (protein)
chain: MKEEVTIKVNLIFADGKTQTAEFKGTFEEATAKAYAYADLLAKENGEYTADLEDGGNTINIKFAGGAVDANSLAEAKVLANRELDKYGVSDYYKNLINNAKTVEGVKALIDEILAALP
modifications: ProtL-ABD fusion protein
B5: ProtL^Caf347: ProtL-ABD fusion protein with Caf at position 347 and mutation Tyr361Ala (protein)
chain: MKEEVTIKVNLIFADGKTQTAE[Caf]KGTFEEATAKAYAAADLLAKENGEYTADLEDGGNTINIKFAGGAVDANSLAEAKVLANRELDKYGVSDYYKNLINNAKTVEGVKALIDEILAALP
B6: ProtL^Caf368: ProtL-ABD fusion protein modified with Caf at position 368 (protein)
chain: MKEEVTIKVNLIFADGKTQTAEFKGTFEEATAKAYAYADLLAK[Caf]NGEYTADLEDGGNTINIKFAGGAVDANSLAEAKVLANRELDKYGVSDYYKNLINNAKTVEGVKALIDEILAALP
B7: ProtL^Caf364: ProtL-ABD fusion protein modified with Caf at position 364 (protein)
chain: MKEEVTIKVNLIFADGKTQTAEFKGTFEEATAKAYAYAD[Caf]LAKENGEYTADLEDGGNTINIKFAGGAVDANSLAEAKVLANRELDKYGVSDYYKNLINNAKTVEGVKALIDEILAALP

Test system: mouse anti-6×His antibody alkaline phosphatase (AP) conjugate
Test: ELISA for light-induced reversible binding of an immunoglobulin to ProtL^Caf-ABD fusion proteins
Details: for change in enzyme activity of bound Ig-AP conjugate after irradiation with UV light: UV light at 365 nm, 5 min; for affinity for the IgG (ELISA signal): ground state / illuminated with visible light
Method: ELISA was performed at ambient temperature in a 96-well Maxisorb microtiter plate (Nunc, Langenselbold, Germany).
Then, the wells were blocked with […] Roti-Block (Carl Roth, Karlsruhe, Germany) diluted 1:10 in ddH2O for 1 h and washed three times with PBS containing 0.1% v/v Tween 20 (PBS/T). After that, the purified ProtL^Caf-ABD fusion protein from Example 11 was applied in a dilution series in PBS/T and incubated for 1 h to effect complex formation between the ABD moiety and the pre-adsorbed HSA. The wells were then washed three times with PBS/T and incubated with 50 μl of a 1:1000 dilution in PBS/T of the aforementioned mouse anti-6×His Ig-AP conjugate.
All subsequent washing steps were performed in the dark. […] After 5 min at 25° C., the absorbance at 405 nm was measured using a SpectraMax 250 microtiter plate reader (Molecular Devices, Sunnyvale, Calif., USA).

Molecule	change in enzyme activity of bound Ig-AP conjugate after irradiation with UV light	also measured
B1	clear decrease	dissociation constant for the complex with the anti-6×His antibody (after irradiation with UV light at 365 nm): too low to deduce a dissociation constant; Kd (ground state (no UV), curve fit of the ELISA data, read-out: dissociation constant for the complex with the anti-6×His antibody): ~140 nM; affinity for the IgG (ELISA signal): showed affinity for the IgG; affinity for the IgG (ELISA signal) (listed as Caf337): high affinity
B2	much less signal decrease	–
B3	much less signal decrease	–
B4	did not reveal any change in binding activity	–
B5	much less signal decrease	–
B6	much less signal decrease	–
B7	much less signal decrease	–
